# Measurements taken from PMC8882607 (Journal of Molecular Biology, 2022).
# Molecular target: NTF2-like domain of human G3BP1 (residues 1-139) (human, UniProt Q13283 1-139)
# Experiment: ITC
# Chain of NTF2-like domain of human G3BP1 (residues 1-139) (Q13283 1-139): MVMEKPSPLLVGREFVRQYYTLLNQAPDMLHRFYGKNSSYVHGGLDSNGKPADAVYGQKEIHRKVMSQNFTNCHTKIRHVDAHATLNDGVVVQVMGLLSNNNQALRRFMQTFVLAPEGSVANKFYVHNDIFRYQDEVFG
binder,measurement,value
MSDNGPQNQRNAPRITFGGPSDSTG [SARS-CoV-2 N_(1–25) peptide (residues 1-25 of the N protein)],dH,-17.6 kcal/mol
